Experimental data taken from the supplement of paper PMC7877785.
± gives the uncertainty stated by the source.

Test: self-splicing fitness, log relative to wild type (ln ratio); higher = more splicing; Tetrahymena group I intron in knt gene, E. coli kanamycin selection, DiMSum; sequences stand for … in CUCUCU…GGAGGGAAAAGUUAUCAGGCAUGCACCUGGUAGCUAGUCUUUAAACCAAUAGAUUGCAUCGGUUUAAAAGGCAAGACCGUCAAAUUGCGGGAAAGGGGUCAACAGCCGUUCAGUACCAAGUCUCAGGGGAAACUUUGAGAUGGCCUUGCAAAGGGUAUGGUAAUAAGCUGACGGACAUGGUCCUAACCACGCAGCCAAGUCCUAAGUCAACAGAUCUUCUGUUGAUAUGGAUGCAGUUCACAGACUAAAUGUCGGUCGGGGAAGAUGUAUUCUUCUCAUAAGAUAUAGUCGGACCUCUCCUUAAUGGGAGCUAGCGGAUGAAGUGAUGCAACACUGGAGCCGCUGGGAACUAAUUUGUAUGCGAAAGUAUAUUGAUUAGUUUUGGAGUACUCGUGGUCG
Outline: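 The eight P1ex-region nucleotides of an intron in the knt kanamycin-resistance gene on pET-22b(+) were all randomised and the library put into E. coli BL21(DE3). Six replicate transformations were grown overnight at 37°C or 30°C on LB agar with or without 25 μg/mL kanamycin, together with 100 μg/mL carbenicillin, 50 μM IPTG and 0.2% rhamnose. Colonies were pooled and amplicon-sequenced on an Illumina HiSeq 2500. Fitness from DiMSum is the error-weighted combination of wild-type-normalised replicate fold changes, kanamycin over none.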

CGCGAGCAAUAUUACGUUGG
self-splicing fitness (ln) (30 °C): -3.22 ± 0.17
self-splicing fitness (ln) (37 °C): -2 ± 0.2

AUUCAGCAAUAUUACGCACA
self-splicing fitness (ln) (30 °C): -0.671 ± 0.096
self-splicing fitness (ln) (37 °C): -0.192 ± 0.1

UUAGAGCAAUAUUACGUUAG
self-splicing fitness (ln) (30 °C): -0.978 ± 0.13
self-splicing fitness (ln) (37 °C): 0.238 ± 0.21

GGGAAGCAAUAUUACGCAGA
self-splicing fitness (ln) (30 °C): -3.81 ± 0.42
self-splicing fitness (ln) (37 °C): -1.65 ± 0.27

ACCGAGCAAUAUUACGGAGG
self-splicing fitness (ln) (30 °C): -3.01 ± 0.2
self-splicing fitness (ln) (37 °C): -2.72 ± 0.23

GCACAGCAAUAUUACGGAUC
self-splicing fitness (ln) (30 °C): -0.505 ± 0.053
self-splicing fitness (ln) (37 °C): -0.336 ± 0.061

UAAUAGCAAUAUUACGAGUU
self-splicing fitness (ln) (30 °C): -2.79 ± 0.23
self-splicing fitness (ln) (37 °C): -2.31 ± 0.27

AACUAGCAAUAUUACGCCUU
self-splicing fitness (ln) (30 °C): -0.414 ± 0.073
self-splicing fitness (ln) (37 °C): 0.376 ± 0.1

AAUUAGCAAUAUUACGAGGC
self-splicing fitness (ln) (30 °C): -2.7 ± 0.32
self-splicing fitness (ln) (37 °C): -2.6 ± 0.44

GCCCAGCAAUAUUACGGAAA
self-splicing fitness (ln) (30 °C): -0.768 ± 0.075
self-splicing fitness (ln) (37 °C): -0.234 ± 0.084

GGCGAGCAAUAUUACGCCUC
self-splicing fitness (ln) (30 °C): -1.67 ± 0.33

AAGUAGCAAUAUUACGUGGG
self-splicing fitness (ln) (30 °C): -3.49 ± 0.2
self-splicing fitness (ln) (37 °C): -3.24 ± 0.23

AGUCAGCAAUAUUACGUUAU
self-splicing fitness (ln) (30 °C): -1.25 ± 0.099
self-splicing fitness (ln) (37 °C): -0.0312 ± 0.11

UAGUAGCAAUAUUACGUACA
self-splicing fitness (ln) (30 °C): -1.05 ± 0.064
self-splicing fitness (ln) (37 °C): -0.269 ± 0.081

AAUAAGCAAUAUUACGGGGG
self-splicing fitness (ln) (30 °C): -2.91 ± 0.19
self-splicing fitness (ln) (37 °C): -2.75 ± 0.21

CGGCAGCAAUAUUACGACCG
self-splicing fitness (ln) (30 °C): -3.76 ± 0.31

CGUGAGCAAUAUUACGGCAU
self-splicing fitness (ln) (30 °C): -2.59 ± 0.11
self-splicing fitness (ln) (37 °C): -2.28 ± 0.16

AGCGAGCAAUAUUACGGGUG
self-splicing fitness (ln) (30 °C): -2.75 ± 0.24
self-splicing fitness (ln) (37 °C): -1.21 ± 0.21

GAGAAGCAAUAUUACGUUAG
self-splicing fitness (ln) (30 °C): -2.54 ± 0.19
self-splicing fitness (ln) (37 °C): -2.08 ± 0.19

CCAUAGCAAUAUUACGCUAU
self-splicing fitness (ln) (37 °C): -3.35 ± 0.37

GCCCAGCAAUAUUACGCCUC
self-splicing fitness (ln) (30 °C): -0.831 ± 0.075
self-splicing fitness (ln) (37 °C): 0.0191 ± 0.11

GGAAAGCAAUAUUACGAGGA
self-splicing fitness (ln) (30 °C): -2.88 ± 0.21
self-splicing fitness (ln) (37 °C): -1.93 ± 0.24

GUCUAGCAAUAUUACGAAAC
self-splicing fitness (ln) (30 °C): -0.862 ± 0.13
self-splicing fitness (ln) (37 °C): -0.29 ± 0.14

CCGGAGCAAUAUUACGUCCU
self-splicing fitness (ln) (30 °C): -4.9 ± 0.31
self-splicing fitness (ln) (37 °C): -2.29 ± 0.16

CUGAAGCAAUAUUACGCAAC
self-splicing fitness (ln) (37 °C): -2.22 ± 0.35

GUGUAGCAAUAUUACGGACU
self-splicing fitness (ln) (30 °C): -0.979 ± 0.1
self-splicing fitness (ln) (37 °C): -0.103 ± 0.12

UACAAGCAAUAUUACGUAGG
self-splicing fitness (ln) (30 °C): -4 ± 0.26
self-splicing fitness (ln) (37 °C): -2.78 ± 0.27

GAGUAGCAAUAUUACGUGCU
self-splicing fitness (ln) (30 °C): -3.42 ± 0.19
self-splicing fitness (ln) (37 °C): -2.31 ± 0.2

AAGAAGCAAUAUUACGUCAU
self-splicing fitness (ln) (30 °C): -1.81 ± 0.075
self-splicing fitness (ln) (37 °C): -1.04 ± 0.1

GUCCAGCAAUAUUACGUCGG
self-splicing fitness (ln) (30 °C): -3.83 ± 0.41
self-splicing fitness (ln) (37 °C): -1.39 ± 0.2

CCGCAGCAAUAUUACGUUCA
self-splicing fitness (ln) (30 °C): -3.89 ± 0.27
self-splicing fitness (ln) (37 °C): -2 ± 0.16

CCCGAGCAAUAUUACGCUUG
self-splicing fitness (ln) (37 °C): -2.06 ± 0.33

CACUAGCAAUAUUACGACAU
self-splicing fitness (ln) (30 °C): -3.209 ± 0.019
self-splicing fitness (ln) (37 °C): -1.97 ± 0.034

AGAAAGCAAUAUUACGUGGC
self-splicing fitness (ln) (30 °C): -3.67 ± 0.3
self-splicing fitness (ln) (37 °C): -1.14 ± 0.19

GAAUAGCAAUAUUACGAAGC
self-splicing fitness (ln) (30 °C): -3.17 ± 0.24
self-splicing fitness (ln) (37 °C): -2.54 ± 0.22

ACUCAGCAAUAUUACGGUGU
self-splicing fitness (ln) (30 °C): -2.56 ± 0.085
self-splicing fitness (ln) (37 °C): -1.34 ± 0.079

GCUCAGCAAUAUUACGCUCU
self-splicing fitness (ln) (30 °C): -1.09 ± 0.082
self-splicing fitness (ln) (37 °C): 0.39 ± 0.12

GAUCAGCAAUAUUACGCAAU
self-splicing fitness (ln) (30 °C): -1.56 ± 0.1
self-splicing fitness (ln) (37 °C): 0.129 ± 0.11

UCUCAGCAAUAUUACGAUAC
self-splicing fitness (ln) (30 °C): -1.92 ± 0.28
self-splicing fitness (ln) (37 °C): -2.46 ± 0.45
